{
  "source": "patent US20100048482A1",
  "about": "(Stanford University, published 2010)",
  "binders": {"B1": {"name": "epsilon protein kinase C (εPKC), endogenous, rat heart (enzyme)", "chain": "MVVFNGLLKIKICEAVSLKPTAWSLRHAVGPRPQTFLLDPYIALNVDDSRIGQTATKQKTNSPAWHDEFVTDVCNGRKIELAVFHDAPIGYDDFVANCTIQFEELLQNGSRHFEDWIDLEPEGKVYVIIDLSGSSGEAPKDNEERVFRERMRPRKRQGAVRRRVHQVNGHKFMATYLRQPTYCSHCRDFIWGVIGKQGYQCQVCTCVVHKRCHELIITKCAGLKKQETPDEVGSQRFSVNMPHKFGIHNYKVPTFCDHCGSLLWGLLRQGLQCKVCKMNVHRRCETNVAPNCGVDARGIAKVLADLGVTPDKITNSGQRRKKLAAGAESPQPASGNSPSEDDRSKSAPTSPCDQELKELENNIRKALSFDNRGEEHRASSSTDGQLASPGENGEVRQGQAKRLGLDEFNFIKVLGKGSFGKVMLAELKGKDEVYAVKVLKKDVILQDDDVDCTMTEKRILALARKHPYLTQLYCCFQTKDRLFFVMEYVNGGDLMFQIQRSRKFDEPRSGFYAAEVTSALMFLHQHGVIYRDLKLDNILLDAEGHSKLADFGMCKEGILNGVTTTTFCGTPDYIAPEILQELEYGPSVDWWALGVLMYEMMAGQPPFEADNEDDLFESILHDDVLYPVWLSKEAVSILKAFMTKNPHKRLGCVAAQNGEDAIKQHPFFKEIDWVLLEQKKMKPPFKPRIKTKRDVNNFDQDFTREEPILTLVDEAIVKQINQEEFKGFSYFGEDLMP", "notes": "Endogenous protein in mitochondrial or cytosolic fractions of Wistar rat hearts, immunoprecipitated from lysate; also called PKCε; epsilon PKC"}},
  "target": "heat shock protein 90 (HSP90), endogenous, rat heart (rat, UniProt P82995 2-733, limits assumed)",
  "experiment": "co-immunoprecipitation and western blot, mitochondria of rat hearts after IR with or without 1 µM ψεHSP90 peptide",
  "method": "200-500 μg of mitochondrial or cytosolic protein was diluted into 1 ml of IP Lysis Buffer (150 mM NaCl, 10 mM Tris-HCl, 5 mM EDTA, 0.1% Triton X-100, pH=7.4, containing Sigma Protease Inhibitor 1 and Sigma Phosphatase Inhibitors 1 and 2). […] 10 μg of Protein A/G Beads (Santa Cruz Biotechnology) were added and the mixture was incubated overnight at 4° C. with inversion mixing. Beads were then centrifuged, washed 3× in IP Lysis Buffer, then re-suspended in sample buffer. Immunoprecipitated proteins were separated on 10% SDS-PAGE gels. […] A beads alone group was also included for each sample set to assess any non-specific protein binding to the beads.",
  "data": [
    {"binder": "B1", "values": [
      {"measurement": "fold increase in co-immunoprecipitation with ψεHSP90 peptide treatment against IR alone", "result": "~4", "unit": "fold"}
    ]}
  ]
}
